Results from publication PMC5497220 (2017).
Where no end group is shown, it is not given here.

Molecular target: T1, Histone H3 (4-10) K9ac peptide 4-10 (Homo sapiens, UniProt P68431, not fully specified (residue 7))
T1 chain: TKQTARK
Experiment: ITC

B1: ENL (protein)
chain: MDNQCTVQVRLELGHRAQLRKKPTTEGFTHDWMVFVRGPEQCDIQHFVEKVVFWLHDSFPKPRRVCKEPPYKVEESGYAGFIMPIEVHFKNKEEPRKVCFTYDLFLNLEGNPPVNHLRCEKLTFNNPTTEFRYKLLRAGGVMVMPEGADTVSRPSPDYPMLPTIPLSAFSDPKKTKPSHGSKDANKESSKTSKPHKVTKEHRERPRKDSESKSSSKELEREQAKSSKDTSRKLGEGRLPKEEKAPPPKAAFKEPKMALKETKLESTSPKGGPPPPPPPPPRASSKRPATADSPKPSAKKQKKSSSKGSRSAPGTSPRTSSSSSFSDKKPAKDKSSTRGEKVKAESEPREAKKALEVEESNSEDEASFKSESAQSSPSNSSSSSDSSSDSDFEPSQNHSQGPLRSMVEDLQSEESDEDDSSSGEEAAGKTNPGRDSRLSFSDSESDNSADSSLPSREPPPPQKPPPPNSKVSGRRSPESCSKPEKILKKGTYDKAYTDELVELHRRLMALRERNVLQQIVNLIEETGHFNVTNTTFDFDLFSLDETTVRKLQSCLEAVAT
  Kd: 30.1 µM
